From article PMC10065799, “High-throughput profiling of sequence recognition by tyrosine kinases and SH2 domains using bacterial peptide display” (eLife, 2023)
Square brackets hold non-standard residues; d marks the D form. pY = N[C@@H](Cc1ccc(OP(=O)(O)O)cc1)C(=O)O

B1: CLIP2_Y972 phosphopeptide Ac-QSDQRR(pY)SLIDRG-NH2 (peptide)
peptide: Ac-QSDQRR[pY]SLIDRG-NH2
SMILES: CC[C@H](C)[C@H](NC(=O)[C@H](CC(C)C)NC(=O)[C@H](CO)NC(=O)[C@H](Cc1ccc(OP(=O)(O)O)cc1)NC(=O)[C@H](CCCNC(=N)N)NC(=O)[C@H](CCCNC(=N)N)NC(=O)[C@H](CCC(N)=O)NC(=O)[C@H](CC(=O)O)NC(=O)[C@H](CO)NC(=O)[C@H](CCC(N)=O)NC(C)=O)C(=O)N[C@@H](CC(=O)O)C(=O)N[C@@H](CCCNC(=N)N)C(=O)NCC(N)=O
notes: source: synthetic peptide (synthesized in-house, RP-HPLC purified)
B2: CLIP2_Y972_R977P phosphopeptide Ac-QSDQRR(pY)SLIDPG-NH2 (peptide)
peptide: Ac-QSDQRR[pY]SLIDPG-NH2
SMILES: CC[C@H](C)[C@H](NC(=O)[C@H](CC(C)C)NC(=O)[C@H](CO)NC(=O)[C@H](Cc1ccc(OP(=O)(O)O)cc1)NC(=O)[C@H](CCCNC(=N)N)NC(=O)[C@H](CCCNC(=N)N)NC(=O)[C@H](CCC(N)=O)NC(=O)[C@H](CC(=O)O)NC(=O)[C@H](CO)NC(=O)[C@H](CCC(N)=O)NC(C)=O)C(=O)N[C@@H](CC(=O)O)C(=O)N1CCC[C@H]1C(=O)NCC(N)=O
notes: as for B1

Biological target: human c-Src SH2 domain (residues 143-250) (human, UniProt P12931-1 143-250, biotin on the Avi tag (co-expression with the biotin ligase BirA))
Experiment: fluorescence polarisation; competition: unlabeled phosphopeptide serially diluted against 30 nM fluorescent peptide and 240 nM (1.5 x KD) c-Src SH2; same buffer; 25 °C; cubic binding equation
Details: both partners purified

Binder | binding result
B1 | binds
B2 | binds
